Paper PMC4154663, “Bipartite Recognition of DNA by TCF/Pangolin Is Remarkably Flexible and Contributes to Transcriptional Responsiveness and Tissue Specificity of Wingless Signaling”

T1: TCF/Pangolin HMG + C-clamp fragment (UniProt P91943 273-400)
T1 sequence: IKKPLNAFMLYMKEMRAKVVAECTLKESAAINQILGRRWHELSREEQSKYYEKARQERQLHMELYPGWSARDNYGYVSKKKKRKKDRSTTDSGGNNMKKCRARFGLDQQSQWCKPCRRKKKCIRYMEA

B1: RW0 competitor (dsDNA)
DNA 1: TGGTACGATAAGATCAAAGGTGGCGGCGTCGTACAC
DNA 2: GTGTACGACGCCGCCACCTTTGATCTTATCGTACCA
B2: AK6 competitor (dsDNA)
DNA 1: TACGATAAGATCAAAGGTGCAGTGCCGCCAGTCGTA
DNA 2: TACGACTGGCGGCACTGCACCTTTGATCTTATCGAC
B3: KK6 competitor (dsDNA)
DNA 1: TACGATCCTTTGATCTTTGCAGTTGGCGGCGTCGTA
DNA 2: TACGACGCCGCCAACTGCAAAGATCAAAGGATCGTA
B4: FF0 competitor (dsDNA)
DNA 1: TGGTACGATCCTTTGATCTTGCCGCCAGTCGTACAC
DNA 2: GTGTACGACTGGCGGCAAGATCAAAGGATCGTACCA

Target: T1, TCF/Pangolin HMG + C-clamp fragment
Experiment: competition EMSA; labeled AK6 probe; 10 mM Tris-HCl pH 7.5, 50 mM KCl, 1 mM DTT, 50 mM MgCl2 (so in the source), 0.05% NP40, 3.5% glycerol, 50 ug/ml poly(dIdC); 6 pmol protein, 0-2.4 pmol competitor, 20
Conditions: protein: recombinant, tags: His (pET52b(+), XmaI/SacI), blunt

Binder | IC50 [nM] | IC50 (printed reverse strand is mismatched at its last 2 nt (atcgac vs atcgta)) [nM]
B1 | 189 | –
B2 | – | 5.1
B3 | 99.7 | –
B4 | 9.4 | –
